Assay: Directed evolution of UGT76G1 round 1, variant lysates, Rebaudioside D to Rebaudioside M conversion and initial rate
Format: biochemical
Protocol: Lysis was performed by addition of Bugbuster® Master mix (Novagen®) to the thawed cells and the lysate was recovered by centrifugation. Activity tests were performed with 100 μL of fresh lysate that was added to a solution of Rebaudioside D (final concentration 0.5 mM), MgCl2 (final concentration 3 mM) and UDP-Glucose (final concentration 2.5 mM) in 50 mM phosphate buffer pH 7.2.
The reaction was allowed to run at 30° C. and samples were taken after 2, 4, 7 and 24 h. to determine conversion and initial rate by HPLC (CAD detection) using the analytical method that was described above for the transformation of Rebaudioside D to Rebaudioside M. The results are depicted in the following table.

B1: UGT76G1var94: UGT76G1 variant containing mutations Q266E_P272A_R334K_G348P_L379G (protein, UniProt Q6VAB4 1-458, looked up, variant Q266E P272A R334K G348P L379G)
UDP-glycosyltransferase 76G1: MENKTETTVRRRRRIILFPVPFQGHINPILQLANVLYSKGFSITIFHTNFNKPKTSNYPHFTFRFILDNDPQDERISNLPTHGPLAGMRIPIINEHGADELRRELELLMLASEEDEEVSCLITDALWYFAQSVADSLNLRRLVLMTSSLFNFHAHVSLPQFDELGYLDPDDKTRLEEQASGFPMLKVKDIKSAYSNWQILKEILGKMIKQTKASSGVIWNSFKELEESELETVIREIPAPSFLIPLPKHLTASSSSLLDHDRTVFEWLDQQAPSSVLYVSFGSTSEVDEKDFLEIARGLVDSKQSFLWVVRPGFVKGSTWVEPLPDGFLGERGKIVKWVPQQEVLAHPAIGAFWTHSGWNSTLESVCEGVPMIFSDFGGDQPLNARYMSDVLKVGVYLENGWERGEIANAIRRVMVDEEGEYIRQNARVLKQKADVSLMKGGSSYESLESLVSYISSL
Question: For B1, which “activity ranking in first round of directed evolution, Rebaudioside D to Rebaudioside M” value is on record?
Answer: most active clone

From patent US11542537B2, “High-purity steviol glycosides” (PureCircle Sdn Bhd, priority 2012, dated 2023)
